Measured values taken from patent US20220306729A1.
Positions count from the first letter of the chain named.

What was measured:
[1] = target: T1, ZIKV envelope domain III ([..]), polyhistidine-AviTag, made in HEK-293-6E cells (Zika virus (KJ776791)); experiment: ELISA on ZIKV EDIII (Table A); details: remark: other sources report otherwise
[2] = target: T1, ZIKV envelope domain III ([..]), …; experiment: ELISA, biotinylated Z004 on ZEDIII, streptavidin-HRP; details: remark: other sources report otherwise

B1: Z005 (MEX18_13) (antibody, V domains shown)
VH: EVQLLESGGGLVQPGGSLRLSCAASGFTFSSYAMSWVRQAPGKGLEWVSSFSGIDDSTWYADSVKGRFTISRDNSKSTLYLQMNSLRAEDTAVYYCAKDRLVRGFAEVLDYWGRGTLVTVSS
VL: DIQMTQSPSSLSASVGDRVTITCRASQDISKYLAWYQQRPGKVPNLLIYTASTLQSGVPSRFSGSGSGTHFTLTISSLQPEDVATYYCQKYNSVPWTFGQGTKVEIK
- EC50 [1]: 0.216 µg/mL

B2: Z052 (BRA138_62) (antibody, V domains shown)
VH: QVQLQESGPGLVKPSQTLSLTCTVSGGSITGGVYYWNWIRHHPGKGLEWIGYMFYSGDTDYNPSLRSRVTISGDTSKNKFSLNLNSVTAADTAVYYCARAGFDYGSPVSAFDIWGQGTLVTVSS
VL: EIVLTQSPATLSLSPGERATLSCRASQSVSSTYLVWYQQKPGQAPRLLIYGASSRATGIPDRFSGSGSGTDFTLTISRLEPEDFAVYFCQQYAHSPRGYTFGQGTKLEIK
- EC50 [1]: 0.0131 µg/mL

B3: Z053 (BRA138_65) (antibody, V domains shown)
VH: QLQLQESGPGLVKPSETLSLTCTVSGGSISSYNYYWGWIRQPPGKGLEFIGSIYYTGSTYYNPSLRSRVTISVDTSKNQFSLKLTSVTAADTAVYYCARHGPGMGHNWYFDLWGRGTLVTVSS
VL: EIVLTQSPATLSLSPGERATLSCRASQSISSYLAWYQQKPGQAPRLLIYDASNRAPGIPARFSGSGSGTDFTLTISSLEPEDFAVYYCQQRSTWLTFGGGTKVEIK
- EC50 [1]: 1.68 µg/mL

B4: Z002 (MEX18_27) (antibody, V domains shown)
VH: EVQLLESGGGLVQPGGSLRLSCATSGFTFSTYAMSWVRQAPGKGLEWVSSFSGVDDSTYYAESVKGRFTISRDNSKNTVYLQMTRLRAEDTAVYYCAKDRGPRGVGELFDSWGQGTLVTVSS
VL: DIQMTQSPSTLSASVGDRVTMTCRASQSINRWLAWYQQKPGKAPKLLIYTTSTLKSGVPSRFSGSGSGTEFTLTISSLQPDDFATYYCQHFHSVPWTFGQGTKVEIK
- EC50 [1]: 0.0252 µg/mL

B5: Z034 (BRA112_09) (antibody, V domains shown)
VH: EVQLLESGGGLAQPGGSLRLSCETSGFTFRSYGMGWVRQAPGKGLEWVSSIYISGDSTYYAASVKGRFTISRDNSKSTLYLQMDRLTAEDTAVYYCVRDRIQGGFGELYRYWGQGTLVTVSS
VL: B4 VL with I29V, R31K, T50E, T53I, K55E, P59S, F91Y, S93G, V94Y
- EC50 [1]: 0.0235 µg/mL

B6: Z003 (MEX18_58) (antibody, V domains shown)
VH: EVQLLESGGGLVQPGGSLRLSCATSGFTFTTFAMSWVRQAPGKGLEWVSSISGADDSTYYAASVKGRFTISRDNSRSTLFLQMNSLRAEDTAVYYCAKDRGPRGVGELFDSWGQGTLVTVSS
VL: B4 VL with M21I, N30S, R31K, K45R, H92F
- EC50 [1]: 0.0255 µg/mL

B7: Z004 (MEX18_89) (antibody, V domains shown)
VH: EVQLLESGGGLVQPGGSLRLTCATSGFTFRDYAMSWVRQAPGKGLEWVSSYSGIDDSTYYADSVKGRFTISRDNSKSTLSLHMNSLRAEDSALYFCAKDRGPRGVGELFDSWGQGTLVTVSS
VL: B4 VL with M21I, N30S, R31K, H92Y
- EC50 [2]: 0.16 µg/mL

B8: Z011 (MEX105_15) (antibody, V domains shown)
VH: EVQLLESGGGLVQPGGSLRLSCAASGFTFRTYAMSWVRQPPGKGLEWVSSISAREDSTYFAASVRGRFTISRDNSKNTLYLQMNNLRAEDTALYYCAKDRLQLGVGELYESWGQGTLVTVSS
VL: B4 VL with M21I, S28N, R31S, T50M, T51A, T53S, K55Q, I75V, F91Y, V94Y
- EC50 [1]: 0.038 µg/mL

B9: Z055 (MEX84_p4-61) (antibody, V domains shown)
VH: EVQLVQSGAEVKKPGASVKVSCKASGYTFSGYYIHWLRQAPGQGLEWMGWINSNSGGADSGPRFHGRVTMTRDTSINTAYLELTNLRSDDTAVYYCARRTYYDTRFPYWYFDLWGRGTLVTVSS
VL: AIRMTQSPSSLSASVGDRVTITCRASQDIGSYLNWYQQKPGKAPNVLISAASTLQSGVPSRISGIGSGTDFTLTISSLQPEDFATYYCQQSLSAPYTFGQGTKLEIK
- EC50 [1]: 1.88 µg/mL

B10: Z062 (BRA112_70) (antibody, V domains shown)
VH: EVQLVESGGGVVQPGRSLRLSCAASGFSFSSHAMYWVRQAPGKGLEWVAIVSYDGSTKNYADSVKGRFTISRDNSKNTIYLHLNSLRAEDTAVYFCAREVDGIYGYLHYWGQGTLVTVSS
VL: EIVLTQSPATLSLSPGERATLSCRARQNVRNFLAWYQQKPGQAPRLLIYDASNRATDIPARFSGSGSGTDFTLTISSLEPEDFAVYYCQQRSYSITFGQGTRLEIK
- EC50 [1]: 0.208 µg/mL

B11: Z057 (MEX84_p4-54) (antibody, V domains shown)
VH: EVQLVQSGAEVKRPGASVKVSCKASGYTFADYYIHWVRQAPGLGLEWMGWINPKTGFSHYEQTFQGRVTMARDTSIPAAYMELSSLKSDDTAIYYCARGGRINVAEALRYWGQGSLVTVSS
VL: DIQMTQSPSTLSTFVGDRVTITCRASQTIGDWLAWYQQKPGKAPKLLISKATRLESGVPSRFSGSGSETEFSLTINSLQPDDVAAYYCQQYMSYPWTFGQGTKLEIK
- EC50 [1]: 0.0828 µg/mL

B12: Z036 (BRA112_91) (antibody, V domains shown)
VH: EVQLLESGGDLVQPGGSLRLSCAASGFTFSTYGMAWVRQAPGKGLEWLSSISSVDDSKYYAASVKGRFTISRDNSRNTLYLHMNSLRVDDTAVYYCAKDRIPHGLGELYANWGQGTLVTVSS
VL: DIQMTQSPSTLSASVGDRVTITCRASQSISGWLAWYQQKPGKAPRLLMHKASNLYSGVPSRFSGSGSGTEFTLTISSLQPDDFATYYCQHYHSYPYTFGQGTKVEIK
- EC50 [1]: 0.0172 µg/mL

B13: Z059 (MEX84_p4-34) (antibody, V domains shown)
VH: EVQLVQSGAEVKTPGSSVKVSCKTSGGTFSNFAITWVRQAPGQGLEWMGGIIPLFGITNYTQKFQGRVTITTDESKTTAYMDLSGLRSEDTAVYFCARGRDSSGRLLDHWGQGTLVTVSS
VL: EIVMTQSPATLSVSPGERATLSCRASQTVNRNLAWYQQKPGQAPRLLIYAASARATGVPARFSGSGSGTEFTLTISSLQSEDFVVYYCQQYNNWPPLTFGGGTKLEIK
- EC50 [1]: 0.61 µg/mL

B14: Z051 (BRA138_59) (antibody, V domains shown)
VH: QVQLQESGPGLVKPSQTLSLTCTVSGVSISSGGYYYSWFRQLPGKGLEWIGHIYYTGNTHYNPSLRSRLTISVDTSKNQFSLKLSSVTAADTARYYCARAWCEYAAYCWFDPWGRGTLVTVSS
VL: EIVLTQSPGTLSLSPGERATLSCRASQSVTSSYLAWYQHKPGQAPRLLIYGASSRAPGIPDRFSGSGSGTDFTLTISRLEPEDFAVYWCQQYGRSPFTFGQGTKLEIK
- EC50 [1]: 1.86 µg/mL

B15: Z056 (MEX84_p2-94) (antibody, V domains shown)
VH: EVQLVQSGAEVKKPGASVKVSCKASGNTFMGYYFHWVRQAPGQGLEWMGWINPNSGHANIAQTFQGRVTMTRDPSITTAYMELSRLRSDDTAVFYCARGGMLGQLWALDNWGQGTLVTVSS
VL: DIQMTQSPSTLSASVGDRVTITCRASQSISHWLAWYQQRPGEAPKLLIYQASTLESGVPSRFSGSGSGTEFTLSISSLQPDDFATYYCQQYQSSPYTFGQGTKLEIK
- EC50 [1]: 0.982 µg/mL

B16: Z016 (MEX84_p2-55) (antibody, V domains shown)
VH: QVQLVQSGAEVKKPGASVKLSCKASGYTFTSYYVHWVRQAPGQGLEWMGIINPGNNFVSFAQNFYDRATMTRDTSTNTVYMELTNLQSEDTAVYYCARTLVAPSAQSMYYFDFWGQGTLVTVSS
VL: EIVLTQSPGTLSLSPGERGTLSCRASQYITTGHFAWYQQKPGRAPRLLIYGASVRATGVPDRFSGSGAETDFTLTISRLDPEDVGVYYCQQYGSSPVTFGPGTKVDIK
- EC50 [1]: 0.0724 µg/mL

B17: Z007 (MEX105_50) (antibody, V domains shown)
VH: EVQLLESGGGLVRPGGSLRLSCTASGFTFRRYAMAWVRQAPGKGLEWVSLIYDGDDSTYYAKSVKGRFAISRDNSKNTLSLQMNSLRAEDTAVYYCVKDRDNGWSSIVDWGQGTLVTVSS
VL: DIQMTQSPSTLSASVGDRVTITCRASHSISGWLAWYQQKPGKAPKLLIYQASILESGVPSRFSGSGSGTEFTLTIGSLQPEDFATYFCQQYSTFWTFGQGTKVEIK
- EC50 [1]: 0.0346 µg/mL

B18: Z009 (MEX105_64) (antibody, V domains shown)
VH: B17 VH with D53N, K62E, A69T, I70V, K76Q, V93I, K98R
VL: B17 VL with H27R, S28T, S30G, G31S, S56G, G66V, G76R
- EC50 [1]: 0.0284 µg/mL

B19: Z008 (MEX105_60) (antibody, V domains shown)
VH: B17 VH with Y32F, Y52W, D53N, K62E, K65R, A69T, K76H, N84R, V93I
VL: B17 VL with H27Q, S28T, S30G, G31N, I53V, G76S
- EC50 [1]: 0.0326 µg/mL

B20: Z050 (BRA138_28) (antibody, V domains shown)
VH: QVQLVQSGAEVKKPGSSVKVSCKAPGGTFSRYSIAWVRQAPGQGLEWMGGINPTFTTPNYAQKFQGRVTITADESTNTAYLDLSSLRSEDTAVYYCARFRYYYESGGYSDASPYYLDYWGQGTLVTVSS
VL: EIVLTQSPATLSLSPGERVTLSCRASQSVSSYLAWYQQKPGQAPRLLIYDASNRATGIPARFTGSGSGTDFTLTISSLEPEDFAVYYCQQRSNWPLTFGGGTKVEIK
- EC50 [1]: 0.0303 µg/mL

B21: Z061 (BRA112_36) (antibody, V domains shown)
VH: EVQLVESGGGVVQPGRSLRLSCAASGFTFSISTIHWVRQAPGKGLEYVVVISHDGNTKYYADSVKGRFIISRDNSKNTVFLQMNSLRPVDTAVYYCARGEVGYFDLWGRGTLVTVSS
VL: EIVLTQSPATLSLSPGERATLSCRASQSVSSFLAWYQQKPGQPPRLLIYDASTRATGIPARFSGSGSGTDFTLTISSLEPEDFAVYYCQQRSNWPPITFGQGTRLEIK
- EC50 [1]: 0.311 µg/mL
